The text below walks through data of US20050261472A1, “Binding moieties for fibrin” (Dyax Corp., priority 1999, published 2005).

Ends that are not written are not given here.

T1: fibrinogen (UniProt P02671 20-629; P02675 31-491; P02679 27-437, limits assumed)
T1 sequence (looked up) 1: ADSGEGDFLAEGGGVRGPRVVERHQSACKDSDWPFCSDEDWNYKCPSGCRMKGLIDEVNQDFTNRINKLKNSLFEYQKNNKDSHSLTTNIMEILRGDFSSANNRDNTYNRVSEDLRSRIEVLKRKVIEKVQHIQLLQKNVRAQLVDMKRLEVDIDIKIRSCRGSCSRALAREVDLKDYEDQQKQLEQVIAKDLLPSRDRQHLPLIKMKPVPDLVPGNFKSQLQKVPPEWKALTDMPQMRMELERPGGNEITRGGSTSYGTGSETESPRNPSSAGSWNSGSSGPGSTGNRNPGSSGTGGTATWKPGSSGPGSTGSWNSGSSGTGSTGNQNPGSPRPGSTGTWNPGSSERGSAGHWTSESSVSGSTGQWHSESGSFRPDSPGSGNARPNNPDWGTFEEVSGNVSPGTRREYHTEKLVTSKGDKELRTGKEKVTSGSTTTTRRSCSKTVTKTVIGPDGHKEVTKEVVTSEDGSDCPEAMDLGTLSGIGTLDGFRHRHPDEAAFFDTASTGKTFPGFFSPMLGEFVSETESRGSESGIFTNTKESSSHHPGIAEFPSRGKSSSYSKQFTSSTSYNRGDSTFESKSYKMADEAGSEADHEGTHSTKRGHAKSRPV
T1 sequence (looked up) 2: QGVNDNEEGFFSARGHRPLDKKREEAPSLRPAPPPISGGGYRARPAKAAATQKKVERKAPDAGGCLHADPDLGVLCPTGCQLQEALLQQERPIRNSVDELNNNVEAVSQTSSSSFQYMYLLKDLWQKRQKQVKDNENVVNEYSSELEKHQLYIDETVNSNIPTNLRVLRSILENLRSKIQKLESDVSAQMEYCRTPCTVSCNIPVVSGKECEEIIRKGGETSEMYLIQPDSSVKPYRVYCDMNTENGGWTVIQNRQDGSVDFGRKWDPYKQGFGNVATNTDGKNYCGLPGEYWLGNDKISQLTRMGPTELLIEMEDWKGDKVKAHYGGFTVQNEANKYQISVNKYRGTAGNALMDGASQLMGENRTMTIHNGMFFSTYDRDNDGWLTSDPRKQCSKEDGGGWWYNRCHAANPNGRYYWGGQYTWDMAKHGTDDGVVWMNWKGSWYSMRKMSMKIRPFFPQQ
T1 sequence (looked up) 3: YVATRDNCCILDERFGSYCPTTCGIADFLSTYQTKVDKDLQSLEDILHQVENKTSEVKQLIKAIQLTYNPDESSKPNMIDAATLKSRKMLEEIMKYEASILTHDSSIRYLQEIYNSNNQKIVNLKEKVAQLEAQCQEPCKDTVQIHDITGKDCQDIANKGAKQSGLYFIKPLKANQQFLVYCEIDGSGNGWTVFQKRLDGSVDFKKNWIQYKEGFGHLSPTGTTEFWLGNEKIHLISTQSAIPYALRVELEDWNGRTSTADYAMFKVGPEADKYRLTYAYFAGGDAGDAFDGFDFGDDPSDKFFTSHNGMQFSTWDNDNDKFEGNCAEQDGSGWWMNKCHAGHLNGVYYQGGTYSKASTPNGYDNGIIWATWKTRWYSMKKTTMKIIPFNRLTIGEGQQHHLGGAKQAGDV

B1: TN7 isolate 6, phage-displayed FACHYYGTCLH (peptide)
peptide: FACHYYGTCLH
modifications: not fully specified (bridges); cysteine pairing not given here
notes: Tested as a phage clone; not shown: not specified
B2: TN7 isolate 7, phage-displayed LACHYYGTCLH (peptide)
peptide: LACHYYGTCLH
modifications: not fully specified (bridges); cysteine pairing not given here
notes: as for B1
B3: TN7 isolate 8, phage-displayed DGCHYYGTCLH (peptide)
peptide: DGCHYYGTCLH
modifications: not fully specified (bridges); cysteine pairing not given here
notes: as for B1

One assay deals with T1, fibrinogen. The assay is described as follows: phage ELISA on immobilised fibrinogen. Here is the method:
(§1) After five rounds of selection, the eluted phage were propagated and a portion plated to isolate phage plaques arising from individual clones. Ninety such clones were selected randomly, propagated, and tested individually for binding to fibrin in a dried fibrin plate assay. Dried fibrin plates were prepared as described above for the library screening. Phage samples (˜10⁹ phage each) were incubated in the dried fibrin plate wells in binding buffer (50 mM Tris, 150 mM NaCl, 2 mM CaCl₂, 0.05% Tween-20) containing 0.1% HSA. After 1 hour, the plates were washed 5 times with binding buffer. Anti-M13 antibody conjugated to horseradish peroxidase (Pharmacia) was added at 1/5000 dilution in binding buffer to the wells and incubated with the fibrin for 1 hour. The wells were again washed 5 times with binding buffer and the presence of the antibody/phage/fibrin complex was measured with HRP calorimetric reagents (3,3′,5,5′-tetrarnethylbenzidine (TMB) and H₂O₂). A high absorbance at 595 nm (due to oxidized TMB) was indicative of a tight phage/fibrin interaction, and phage clones corresponding to those wells were identified as bearing fibrin-binding moieties.
(§2) These fibrin-binding positive clones were subjected to several secondary ELISA assays. These assays followed a similar protocol to that detailed above for the dried fibrin ELISA assay, the only variations being the method of target immobilization and the omission of HSA from binding and wash buffers. A screen against DD(E) acted as a further confirmation of fibrin binding activity. An ELISA screen against fibrinogen (immobilized to the plate by the biotin/streptavidin protocol used for DD(E)) was a check against fibrinogen binding and confirmed that the negative selection procedure detailed in Example 2 had been effective. Finally, ELISAs to assay binding to immobilized HSA (passively bound to the polystyrene plate) and a target-free microtiter plate were controls to eliminate phage that bound promiscuously or nonspecifically.
On the technique in general: In an ELISA, binding on a coated surface is turned into a signal by an enzyme label.
In the case of B1, the binding result is listed as “no binding”.
On the same count and under the same terms, as for B2, the entry is “no binding”.
B3: the binding result is recorded as “no binding”.

For another assay, the target named is T2, human serum albumin (human, UniProt P02768 25-609).
T2 construct: also called HSA
T2 sequence (P02768 25-609 limits assumed): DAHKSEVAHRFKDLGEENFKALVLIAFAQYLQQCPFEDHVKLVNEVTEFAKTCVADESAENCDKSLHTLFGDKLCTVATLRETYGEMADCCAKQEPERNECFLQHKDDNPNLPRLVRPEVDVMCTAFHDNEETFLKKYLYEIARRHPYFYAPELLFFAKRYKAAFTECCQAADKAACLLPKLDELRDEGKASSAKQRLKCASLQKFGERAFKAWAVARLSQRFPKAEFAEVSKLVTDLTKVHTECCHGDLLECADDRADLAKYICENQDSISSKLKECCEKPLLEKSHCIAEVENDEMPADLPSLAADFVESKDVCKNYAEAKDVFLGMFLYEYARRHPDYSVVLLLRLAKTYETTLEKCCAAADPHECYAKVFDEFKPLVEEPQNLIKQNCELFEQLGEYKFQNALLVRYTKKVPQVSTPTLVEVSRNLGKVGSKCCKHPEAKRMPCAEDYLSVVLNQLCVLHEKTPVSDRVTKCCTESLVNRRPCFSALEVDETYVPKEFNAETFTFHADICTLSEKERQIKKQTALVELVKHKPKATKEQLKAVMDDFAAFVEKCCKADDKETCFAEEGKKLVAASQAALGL
The assay is described as follows: phage ELISA on immobilised HSA. Here is the method: as §1, §2
For B1, the binding result is listed as “no binding”.
The same measure, in the same setting: as for B2, the entry is “no binding”; as for B3, “no binding”.
